The record followed here is patent US20100041873A1.

The target of this assay is Human IL-21 receptor on Baf3/KZ134/huIL-21R cells (human) (UniProt Q9HBE5). The experiment in a line: cell-based or functional assay.
Sequence of Human IL-21 receptor on Baf3/KZ134/huIL-21R cells (human) (Q9HBE5 20-538): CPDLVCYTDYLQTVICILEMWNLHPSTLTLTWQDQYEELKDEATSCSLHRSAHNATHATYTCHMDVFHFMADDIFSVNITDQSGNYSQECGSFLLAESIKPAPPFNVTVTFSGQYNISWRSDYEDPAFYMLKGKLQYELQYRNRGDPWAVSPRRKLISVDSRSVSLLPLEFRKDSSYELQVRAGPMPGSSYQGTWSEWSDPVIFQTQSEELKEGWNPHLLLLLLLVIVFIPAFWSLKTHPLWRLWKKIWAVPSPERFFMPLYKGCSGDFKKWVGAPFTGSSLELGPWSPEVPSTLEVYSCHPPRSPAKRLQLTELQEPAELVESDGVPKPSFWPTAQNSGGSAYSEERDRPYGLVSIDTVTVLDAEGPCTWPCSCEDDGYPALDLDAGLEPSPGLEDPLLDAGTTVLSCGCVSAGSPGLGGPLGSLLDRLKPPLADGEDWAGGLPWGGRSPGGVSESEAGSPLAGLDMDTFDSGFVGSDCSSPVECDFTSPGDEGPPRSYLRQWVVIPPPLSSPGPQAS

On to “Recombinant rat IL-21 (from UniProt A3QPB9 18-146) (ligand)”, for which the EC90, 24 hr STAT-Luciferase assay in Baf3/KZ134/huIL-21R cells came to 1.08 nM.
